Experimental findings from patent US20030207290A1 are described below.

Several values for one entry are separate records, joined by “and”; a condition that tells them apart may be missing. Identical values can stand only once. Like-named read-outs stand apart in the source and are kept apart here.

For assay [1], the target named is phosphorylated EGFR (Sigma Chemical Co, self-phosphorylated) (UniProt P00533). In words: TnT protein on streptavidin plate, […] phosphorylated EGFR; bound EGFR detected by its kinase activity on pEY, 1 hr reaction.
Assay [2] shares this target. The assay can be described thus: TnT protein on streptavidin plate, […] phosphorylated EGFR; bound EGFR detected by its kinase activity on pEY, 12 hr reaction.
Assay [3] concerns the target EGFR-pY1148 phosphopeptide, …(p)…. In words: ECL 4-spot multi-array binding assay: peptide-BSA spot, biotinylated TnT protein, Sulfo-TAG streptavidin.
For assay [4], the target named is EGFR-pY992 phosphopeptide, DADE(p)…. Described as above.
Assay [5] addresses T1, EGFR-pY1068 phosphopeptide, LPVPE(p)….
T1 sequence (peptide, phosphotyrosine at (p)Y (residue 6 of the printed peptide; EGFR Tyr1068)): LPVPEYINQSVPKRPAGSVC
The description is as above.

In assay [6] the target is EGFR-pY1148 phosphopeptide, …(p)…. The assay can be described thus: ECL 7-spot plate screen, peptide-BSA spot, biotinylated TnT protein, Ru-streptavidin; signal normalized in two steps.
Assay [7] concerns the target EGFR-pY992 phosphopeptide, DADE(p)…. The assay is described as above.
The target in assay [8] is T1, EGFR-pY1068 phosphopeptide, LPVPE(p)…. Described as above.
The target of assay [9] is phosphorylated EGFR (Sigma Chemical Co, self-phosphorylated) (UniProt P00533). The assay can be described thus: TnT protein on streptavidin plate, […] phosphorylated EGFR; bound EGFR detected with TAG-labeled anti-EGFR (clone 225).
The next assay concerns the target BSA (control coating) (UniProt P02769). In words: ECL plate binding assay: BSA control on electrode, biotinylated TnT protein, Sulfo-TAG streptavidin.
Assay [10] deals with IkBa phosphopeptide (IkBa-24pp), …(p)SGLD(p)SMKDEEYC
The assay can be described thus: ECL 4-spot multi-array binding assay: peptide-BSA spot, biotinylated TnT protein, Sulfo-TAG streptavidin.

In assay [11] the target is c-Myc phosphopeptide (Myc-p58Tp62S), …(p)TPPL(p)SPSRRSGL
The assay can be described thus: ECL plate binding assay: peptide-BSA on electrode, biotinylated TnT protein, Sulfo-TAG streptavidin.

In assay [12] the target is IkBa phosphopeptide (IkBa-24pp), …(p)SGLD(p)SMKDEEYC
The description is as above.

The target of assay [13] is c-Myc phosphopeptide (Myc-p58Tp62S), …(p)TPPL(p)SPSRRSGL
The assay can be described thus: ECL 7-spot plate screen, peptide-BSA spot, biotinylated TnT protein, Ru-streptavidin; signal normalized in two steps.

Assay [14] deals with IkBa phosphopeptide (IkBa-24pp), …(p)SGLD(p)SMKDEEYC
Described as above.

The target is the same in assay [15]. In words: ECL 4-spot multi-array binding assay: peptide-BSA spot.

Chain of c-Myc phosphopeptide (Myc-p58Tp62S), …(p)TPPL(p)SPSRRSGL (peptide, as listed by the source): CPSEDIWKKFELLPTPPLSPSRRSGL
Chain of IkBa phosphopeptide (IkBa-24pp), …(p)SGLD(p)SMKDEEYC (peptide, as listed by the source): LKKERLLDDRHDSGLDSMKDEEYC
Chain of EGFR-pY992 phosphopeptide, DADE(p)… (peptide, as listed by the source): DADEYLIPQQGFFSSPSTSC
Chain of BSA (control coating) (P02769 25-607 limits assumed): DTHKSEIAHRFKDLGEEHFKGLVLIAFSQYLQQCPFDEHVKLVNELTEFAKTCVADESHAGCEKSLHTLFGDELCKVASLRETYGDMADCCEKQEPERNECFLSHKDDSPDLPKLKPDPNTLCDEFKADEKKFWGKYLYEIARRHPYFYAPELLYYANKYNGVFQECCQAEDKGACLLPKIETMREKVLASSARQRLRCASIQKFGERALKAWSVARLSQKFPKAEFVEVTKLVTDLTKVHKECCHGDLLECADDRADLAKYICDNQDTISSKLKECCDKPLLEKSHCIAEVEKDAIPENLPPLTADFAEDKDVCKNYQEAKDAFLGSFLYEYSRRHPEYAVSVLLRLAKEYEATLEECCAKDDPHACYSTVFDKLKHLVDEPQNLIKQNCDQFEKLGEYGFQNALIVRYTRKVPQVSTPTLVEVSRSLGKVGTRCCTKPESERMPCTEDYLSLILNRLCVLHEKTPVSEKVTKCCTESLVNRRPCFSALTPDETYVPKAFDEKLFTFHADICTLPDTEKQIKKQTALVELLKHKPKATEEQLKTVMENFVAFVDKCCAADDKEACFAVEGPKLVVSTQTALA
Chain of βTRCP1 (EST clone IMAGE 3491843), in vitro translated, biotin-labelled (Q9Y297 whole entry): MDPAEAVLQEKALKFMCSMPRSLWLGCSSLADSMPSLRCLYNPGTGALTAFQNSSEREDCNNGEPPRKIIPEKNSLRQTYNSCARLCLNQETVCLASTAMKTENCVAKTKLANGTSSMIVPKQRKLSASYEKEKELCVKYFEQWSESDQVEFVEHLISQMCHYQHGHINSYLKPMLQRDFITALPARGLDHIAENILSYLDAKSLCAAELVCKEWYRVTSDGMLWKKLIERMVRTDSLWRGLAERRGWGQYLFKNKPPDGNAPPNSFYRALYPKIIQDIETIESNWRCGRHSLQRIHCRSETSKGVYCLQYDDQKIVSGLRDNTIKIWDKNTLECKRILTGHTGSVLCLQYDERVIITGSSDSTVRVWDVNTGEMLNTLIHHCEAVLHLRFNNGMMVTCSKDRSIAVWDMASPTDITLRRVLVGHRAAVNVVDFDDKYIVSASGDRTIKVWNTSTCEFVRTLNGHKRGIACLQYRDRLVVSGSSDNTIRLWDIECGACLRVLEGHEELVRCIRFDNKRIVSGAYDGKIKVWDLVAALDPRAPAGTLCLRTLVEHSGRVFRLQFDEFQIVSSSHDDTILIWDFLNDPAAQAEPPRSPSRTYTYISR
Chain of βTRCP2 (EST clone IMAGE 4237375), in vitro translated, biotin-labelled (Q9UKB1 whole entry): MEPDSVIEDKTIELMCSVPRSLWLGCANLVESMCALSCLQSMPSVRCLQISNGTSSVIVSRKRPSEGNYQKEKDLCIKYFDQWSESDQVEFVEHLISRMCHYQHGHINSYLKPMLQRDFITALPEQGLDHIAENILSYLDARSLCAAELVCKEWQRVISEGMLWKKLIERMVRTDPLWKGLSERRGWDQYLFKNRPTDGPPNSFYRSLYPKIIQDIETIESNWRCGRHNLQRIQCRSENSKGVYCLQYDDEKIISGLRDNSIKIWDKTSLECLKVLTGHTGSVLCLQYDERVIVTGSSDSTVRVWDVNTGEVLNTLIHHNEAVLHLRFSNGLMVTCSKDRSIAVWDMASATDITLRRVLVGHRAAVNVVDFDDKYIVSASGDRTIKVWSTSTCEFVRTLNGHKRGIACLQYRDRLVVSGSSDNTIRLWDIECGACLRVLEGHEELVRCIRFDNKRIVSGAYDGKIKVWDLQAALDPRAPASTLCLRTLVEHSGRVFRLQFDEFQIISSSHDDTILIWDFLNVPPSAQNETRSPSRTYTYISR

As for “Phospholipase C gamma 1 (PLCγ) (EST clone IMAGE 4419252), in vitro translated, biotin-labelled (from UniProt P19174 1-1290) (enzyme)”, the ECL signal in assay [1] was determined as 18000 ECL signal; in assay [2], 39800 ECL signal; in assay [3], 110 ECL signal; in [4], 1400 ECL signal; in [5], 1480 ECL signal; in assay [9] it was 30400 ECL signal. Further, the normalized ECL signal in [6] is 4; in assay [7], 10; in assay [8], 55.
With “Shc (EST clone IMAGE 3909654), in vitro translated, biotin-labelled (from UniProt P29353 1-473)”, the results for the normalized ECL signal in assay [6], in [7] and in assay [8] were 3, 1 and 1, respectively.
In the case of “Shc (EST clone IMAGE 3909921), in vitro translated, biotin-labelled (from UniProt P29353 1-473)”, the normalized ECL signal in assay [6] is 5; in assay [7], 1; in assay [8], 1.
Take “Shc (EST clone IMAGE 3911953), in vitro translated, biotin-labelled (from UniProt P29353 1-473)”: the figures for the normalized ECL signal in [6], in [7] and in assay [8] were 3, 1 and 1, respectively.
On to “Shc (EST clone IMAGE 3914467), in vitro translated, biotin-labelled (from UniProt P29353 1-473)”, for which the normalized ECL signal turned out to be 3 in assay [6], 1 in assay [7] and 1 in assay [8].
For the substance “mCBP (EST clone IMAGE 3872466), in vitro translated, biotin-labelled”, the Average ECL signal with BSA (control coating) was 352 ECL signal; in assay [11] it was 351 ECL signal; in [12], 371 ECL signal. For the same substance, the ECL signal amounted to 278 ECL signal in [3], 446 ECL signal in assay [10], 498 ECL signal in [4] and 126 ECL signal in assay [5].
In the case of “βTRCP1 (EST clone IMAGE 3491843), in vitro translated, biotin-labelled (from UniProt Q9Y297 1-605)”, the Average ECL signal with BSA (control coating) amounted to 1720 ECL signal; in [11], 2120 ECL signal; in assay [12], 40900 ECL signal. Moreover, the ECL signal in [3] came out at 36 ECL signal; in [10] it was 2470 ECL signal; in assay [5], 24 ECL signal. For the same substance, the normalized ECL signal in assay [6] was 1; in [13], 8 and 4; in assay [14] it was 12; in assay [14] (positive control preparation), 23. Besides, the fold ECL signal over TnT reaction without exogenous DNA in assay [15] stood at 100 fold.
“βTRCP2 (EST clone IMAGE 4237375), in vitro translated, biotin-labelled (from UniProt Q9UKB1 1-542)”: the Average ECL signal with BSA (control coating) worked out at 672 ECL signal; in assay [11] it was 896 ECL signal; in [12] it was 21500 ECL signal. Moreover, the ECL signal in [3] was 35 ECL signal; in assay [10], 5040 ECL signal; in [5] it was 24 ECL signal. Besides, the normalized ECL signal is 1 in assay [6] and 10 in assay [13]. Further, the fold ECL signal over TnT reaction without exogenous DNA in assay [15] is 100 fold.
